The chains are these.
B1: Twister Ribozyme (parent)
chain: AACACUGCCAAUGCCGGUCCCAAGCCCGGAUAAAAGUGGAGGGGGCGG

Variants of B1 are the subject of this data set. Briefly: self-cleavage, relative activity (ratio to wild type); higher = more cleavage; co-transcriptional.
Regarding AACACUGCCAAUGCCGGUCCUAAGCCCGGAUAAGAGUGGAGGGGGCGG [C21U A34G], the self-cleavage worked out at 0.0608.

AACACUGCCAAUGCCGGUCCCAAGCCCGCAUAAAAGUGGAGUGGGCGG [G29C G42U]: the self-cleavage was found to be 0.129.

As to UACACUGCCAAUGCCGGUCCCAAGCCCGGAAAAAAGUGGAGGGGGCGG [A1U U31A], the self-cleavage is 0.0544.

With AACACUCCCAAUGCCGGUCCCAAGCCCGGAUAAAAGUGGAGGGGCCGG [G7C G45C], the self-cleavage came out at 0.0912.

With AAAACUGCCAAUGCCGGUCCCAAGCCCGGGUAAAAGUGGAGGGGGCGG [C3A A30G], the self-cleavage came to 0.202.

For AACACUGCCAGCGCCGGUCCCAAGCCCGGAUAAAAGUGGAGGGGGCGG [A11G U12C], the self-cleavage is 1.13.

As for AACACUGCCAAUGCCAGUCCCAAGCCCGGAUAAAUGUGGAGGGGGCGG [G16A A35U], the self-cleavage amounted to 1.05.

Consider AACACUGCCAAUGUCGGUCCCAAGCCCGGAUAAAAGUGGAGAGGGCGG [C14U G42A], for which the self-cleavage was 0.456.

With AACACUGCCAAUGCCGGUCCCAAUCCCGGAUAAGAGUGGAGGGGGCGG [G24U A34G], the self-cleavage is 0.189.

Turning to AACAGUGCCAAGGCCGGUCCCAAGCCCGGAUAAAAGUGGAGGGGGCGG [C5G U12G], the self-cleavage stood at 0.768.

As to AACACUGCCACUGCCGGUCCCAUGCCCGGAUAAAAGUGGAGGGGGCGG [A11C A23U], the self-cleavage came to 0.149.

As to AACACUGCCAAUGCCGGUCCCAGGCCGGGAUAAAAGUGGAGGGGGCGG [A23G C27G], the self-cleavage was 0.0997.

With AACACUGCCAAUGCCGGUCCCAAGCCCGUAUAAAAGUGAAGGGGGCGG [G29U G39A], the self-cleavage was found to be 0.417.

On to AACACUGCCAAUGCCGGUCCUAAGCCCGGAUAAAAGUGAAGGGGGCGG [C21U G39A], for which the self-cleavage turned out to be 0.0714.

On to AACACUCCCAAUGCCGGUCCCAACCCCGGAUAAAAGUGGAGGGGGCGG [G7C G24C], for which the self-cleavage is 0.059.

For AACACUGCCAAUGCCGGUCCCAAGCCCGGAUAAAAGUGGUGGAGGCGG [A40U G43A], the self-cleavage was 0.132.

For the variant AACACUACCAAUGCCGGUUCCAAGCCCGGAUAAAAGUGGAGGGGGCGG [G7A C19U], the self-cleavage turned out to be 0.122.

For AACACUCCCAAUGCCGGUCCCAAGCCCGGAUAAAAGUGGAGGGGGCAG [G7C G47A], the self-cleavage turned out to be 0.0829.

In the case of AACACGGCCAAUCCCGGUCCCAAGCCCGGAUAAAAGUGGAGGGGGCGG [U6G G13C], the self-cleavage is 0.078.

For AACACUGCCAAUGCCGGUCCCAAGCCCGGAUACGAGUGGAGGGGGCGG [A33C A34G], the self-cleavage was determined as 0.82.

AACACUGCCAAUGCCGGUCACAAGCCCGGAUAAAAGUGUAGGGGGCGG [C20A G39U]: the self-cleavage amounted to 0.0846.

For AACACUGCCAAUGCCGGUCCCAAGCCCGGAUAAAAGUGGAGGGCGUGG [G44C C46U], the self-cleavage is 0.732.

For AACACUGCCAAUGCCGGUCCCAAGCCCGGACAAAAGUGGCGGGGGCGG [U31C A40C], the self-cleavage came to 0.249.

With AACACUGCCAAUGCCGGUCCCAAGCUCGGAUAAAGGUGGAGGGGGCGG [C26U A35G], the self-cleavage is 0.169.

For AACACUGCUAAUGCCGGUUCCAAGCCCGGAUAAAAGUGGAGGGGGCGG [C9U C19U], the self-cleavage was 0.226.

For AACACUGCCGAUGCCGGUCCCAAGCCGGGAUAAAAGUGGAGGGGGCGG [A10G C27G], the self-cleavage is 0.105.

On to AACACUGCCACUGCCGGUCCCAAGCCCGGAUAAAAGUGGAGGCGGCGG [A11C G43C], for which the self-cleavage came out at 0.159.

On to AACCCUGCCAGUGCCGGUCCCAAGCCCGGAUAAAAGUGGAGGGGGCGG [A4C A11G], for which the self-cleavage came out at 0.193.

As for AACACUGCCAAUGCCGGUCCCAAGCCCGGAGAAGAGUGGAGGGGGCGG [U31G A34G], the self-cleavage was 0.894.

Consider AACCCUGGCAAUGCCGGUCCCAAGCCCGGAUAAAAGUGGAGGGGGCGG [A4C C8G], for which the self-cleavage came out at 0.071.

Consider GACACUGCCAAUGCCGGUCCCAAGCCCGGAUAAAAGUGGAGGGGGCUG [A1G G47U], for which the self-cleavage worked out at 0.278.

As for AGCACUGCCAAUGCCGGUCCCAAGCCCGGAGAAAAGUGGAGGGGGCGG [A2G U31G], the self-cleavage was found to be 0.324.

Turning to AACACUGCCGAUGCCGGUCCCAAGCCCGGAUAAAAGUGGAGGUGGCGG [A10G G43U], the self-cleavage is 0.576.

For AGAACUGCCAAUGCCGGUCCCAAGCCCGGAUAAAAGUGGAGGGGGCGG [A2G C3A], the self-cleavage is 0.171.

With AACACUGCCAAUCCCGGUCCCAAGCCCGGAUAAAAAUGGAGGGGGCGG [G13C G36A], the self-cleavage worked out at 0.126.

Turning to AACACUGCCAAUGCCGGUCCAAAGCCCGGAUAAAAGUGGAGGGGGGGG [C21A C46G], the self-cleavage came out at 0.173.

Consider AACACUGCCCAUGCCGGUCACAAGCCCGGAUAAAAGUGGAGGGGGCGG [A10C C20A], for which the self-cleavage came out at 0.199.

AACACUGCCAAUGCCGGUCCCAAGCCCGGAUAAAAAUGGAGGGGGCGU [G36A G48U]: the self-cleavage was found to be 0.809.

For AACACUGCCAAUGUCAGUCCCAAGCCCGGAUAAAAGUGGAGGGGGCGG [C14U G16A], the self-cleavage came to 0.871.

Take AACACUGCCAAUGACGGUCCCAAGCCCGGAUCAAAGUGGAGGGGGCGG [C14A A32C]: the self-cleavage turned out to be 0.914.

With AACACUACCAAUGCCGGCCCCAAGCCCGGAUAAAAGUGGAGGGGGCGG [G7A U18C], the self-cleavage was found to be 0.0816.

Regarding AAGACUGCCAAUGCCGGUCCCAAGCCCGGAUAAAAGUGGAGGCGGCGG [C3G G43C], the self-cleavage worked out at 0.101.

With AACACUACCAAUGCCGGUCCCAAGCCCGGAUAAAACUGGAGGGGGCGG [G7A G36C], the self-cleavage worked out at 0.113.

On to AAGACUGCCAAUGCCGGUCCCAAGCCCGGAUAAAAGUGUAGGGGGCGG [C3G G39U], for which the self-cleavage stood at 0.107.

With AACACUGCCAAUACCUGUCCCAAGCCCGGAUAAAAGUGGAGGGGGCGG [G13A G16U], the self-cleavage is 0.168.

As to AACACUGCCAAUGCCAGUCACAAGCCCGGAUAAAAGUGGAGGGGGCGG [G16A C20A], the self-cleavage was 0.12.

Take AACACUCCCAAUGCCGGUCCCAAGCCCGGAUAAAAGUGGGGGGGGCGG [G7C A40G]: the self-cleavage is 0.0675.

On to AACACUGCCAAUGCCGGUCCCAAGCCCGGAUUAAAGUGGUGGGGGCGG [A32U A40U], for which the self-cleavage is 0.193.

Turning to AACACUGCCAAUGCCGGUCCCAAGCCCGGAUAAGAGUGGAGGGGACGG [A34G G45A], the self-cleavage is 0.721.

With AAAACUGCCAAUGCCGGUCCCAAGCCCGGAUUAAAGUGGAGGGGGCGG [C3A A32U], the self-cleavage amounted to 0.278.

Turning to AACACUGCCAAUGCCGGUCCCAAGCCCGGAUAGACGUGGAGGGGGCGG [A33G A35C], the self-cleavage turned out to be 0.858.

Regarding AACACUGCCAAUGCCGGUCCCAUGCCCGGAUAAAAGUGGAGGGGGCUG [A23U G47U], the self-cleavage turned out to be 0.163.

Take AACACUGCCUAUGCCGGUCCCAAGCCCGGAUACAAGUGGAGGGGGCGG [A10U A33C]: the self-cleavage amounted to 1.08.

On to AACACUGCCAAUGCCGAUCCCAAGCCCGGAUAAAAGUGGAGGGGGCUG [G17A G47U], for which the self-cleavage is 0.489.

Values taken from the RNAGym collection of RNA variant scans (doi:10.7554/elife.80360).
